Experiment: yeast display, Sf9 membrane polyspecificity reagent, FACS + sequencing; frameworks hold sequencing errors
How it was run: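 Nanobodies from a synthetic yeast display library (Saccharomyces cerevisiae BJ5465), induced 36–48 hours with galactose, were stained 1 hour at 4 °C with 10% biotinylated, detergent-solubilized Sf9 membrane reagent, enriched on streptavidin microbeads, then FACS-sorted. Anti-HA (expression) and streptavidin (reagent binding) fluorescence set low and high (top ~1%) gates. Polyreactivity labels come from the gate of origin. Genes were colony-PCR amplified, MiSeq 2 × 250 sequenced and filtered by CDR length.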

Sequence | polyreactivity (PSR sort gate)
QVQLVESGGGLVQAGGSLRLSCAASGGILPKNAMGCYRQAPGKQRELVAAISTRGTSTYYADSVKGRFTISRDNAKNTVYLQMNSLKPEDTGVYYCATSRVYIGYDYWGQGTQETVSS | low polyreactivity
PVQLVESGGGVVQAGGSLRLSCAASGSTFEYYAMGWYRQAPGKERELVAAITRRGGSTYSADSVKGRFTISRDNAKNTVYVQMNSLKPEDTAVYYCAAKGFPRSGYPYQAQHMYYWGQGTQVTVSS | low polyreactivity
QVQLVESGGGLVQAGGSLRLSCASSGFIFASYAMGWYRQAPGKERELVAAISYRGGTTYYADSVKGRFTISRDNAKNTVYLQMNSLKPEDTAVYYCAADSPENRYNYWGQGTQVTVSS | high polyreactivity
QVQLVESGGGLVHAGGSLLLSCAASGRTLGWYAMGWYIQAPGKERELVATISITGGSTYYAVSVKGRFTISRDYAKNTVYLQMNSLKPEDTAVYYCAARHGSRRRYYYWGQGTQVTVSS | high polyreactivity
QVQLVESGGGLVQAGGSLRLSCAASGSTYYYAMGWYRQAPGKEREFVAAISRDGSSTYYADSVKGRFTISRDNAKYTVYLQMNSLKPEDTAVYYCAASIIRFSTSADKLVTSRYYYWGQGTQVTVSS | high polyreactivity
QVQLVESGGGLVQAGGSLRLSCAASGFTLTLRYAMGLYRQAPGKERELVAAISSGGRTKYADSVKGRFTISRDNAKNTVYLQMNSRKPEDTAVYYCNAVTQREYEEGDYWGQGTQVTVSS | high polyreactivity
QDQLVESGRGLVQAGGSLRLSCAASGRTFALNVMGWYRQAPGKERELVAAISRSGGSTYFADSVKGRFTISRDNAKNTVYIQMNSLKPEDTAVYSCAAATHYQSYKRRDYWGQGTQVTVSS | high polyreactivity
QVQLVESGGGLVHAGGRLRLSCAASGRIFFYYAMGWYRQAPGKERELVAAISQSGGSTYYADSVKGRFTISRDNAKNTVYLQMNSLKPEDTSVYYCNAADPYYVTSAVAGDYWGQGTQVTVSS | low polyreactivity
QLQLVESGGWLVQAGGSLRLSCAASGGTIVTYAMGWYRQAPGKERELVAAISRRGGSTFSADSVKGRFTISRDNAKNTVYLQMNSLKPADTAVYYCAALSNHGYYIRMDYWGHGTQVTVSS | high polyreactivity
QVQLVESGGGLVQAGGSLRLSCAASGSTFGLYAMGWYRQAPGKERELVAAISGGSGRTYYADSVKGRFTISRDNAKNTVYLQMNSLKPEDTAVYYCAAVPVYRHEYDYWGQGTQVTVSS | low polyreactivity
QVQLVESGGGLVQAGGSLRLSCAASGSIFAVNPMGWYRQAPGKERELVASITSGGSTNYADSVKGRFTISRDNAKIRVYLQMNRLKPEDTAVYYCNADSVRAVSRYDYWGQGTQVTVSS | low polyreactivity
QVQLVESGGGIVQAGGSLRLSCAASGFTFGDYVMGWYRPAPGNERELVAAITTSGTRTSYADSVKGRFTISRDNAKNTVFLQMNSLKPEDTAVYYCAAEHTNYYYFWQAHYYWGPGTQVTVSS | high polyreactivity
QVQLVESGGGLVQAGGSLRLSCAASGSIFNYYAMGWYRQAPGKERELVAAISTSGGRTYYADSVKGRFTISRDNAKKTVYLQMNSLKPEDTAVYYCNAVSRTRAGAGDYWGQGTQVTVSS | high polyreactivity
QVQLVESGGGLVQAGCSLRLSCAASGSIFYYYAMGWYRQAPGKERELVAAIRRSGSTTYADSVKGRFTISRDNAKNTVYLQMNSLKPEETAVYYCNVYGYGTEYDYWGQGTLVTVSS | high polyreactivity
QVLVGESGGGLVQAGGSLRLSCAASGSTFSNYAMGWYRQAPGTERELVAVSTRGASTYYADSVKGRFTISRDNAKNTVYLQMNTLKPEDTAVYYCAASYWRYRVVHSPYRYYYWGQGTQVNVSS | high polyreactivity
QVQLVESGGGLVQAGGSLRLSYAASGSTFRVYAMGWYRQAPGKERELVAAISRSGGRTYYADSVKGRFTISRDNAKNTVYLQMNSLKPEDTAVYYCAADYKYTAVSDDYWGQGTQVTVSS | high polyreactivity
QLQLVESGGGLVQAGGSLRLSCAASGLIFTYYAMGWYRQAPGKERELVAAISGRGGSTYYADSVKGRFTISRDSAMKTVYLQMNSLNPEDTAVYYCAAVRWAGYVSDYGYWGQGTQVTVSS | high polyreactivity
QVQLVESGGGLVQAGGSLRLSCAASGRILRFYAMGWYRQAPGKERELVATISRSGGSTYYADSVKGRFTISRDNAKNTVYLQMNSLKPEDTAVYYCNAFLYARQRDRWARYDYWGQGTQVTVSS | high polyreactivity
QVQLVESGGGLVQAGGSLSLSCAASGSIVAYNAMGWYRQAPGKERELVAAITDSGGSTFYADSVKGRFTISRDNAKNTVYLQMNSLKPEDTAVYYCATSGDRLVWGQGTQVTVSS | low polyreactivity
QVQLVESGGGLVQAGGSLRLSCAASGRIIYRYAMGWYRQAPGKERELVATITWSTTSTYHADSVKGRFTISRDNAKNTVYLQMNSLKPEDTAVYYCAASIIPGFRRDPFGYWGQGTQVTVSS | low polyreactivity
QVQLVESGGGLVQAGGSLRLSCAASGSTFWYYAMGWYRQAPGKERELVAAITSVDSTYYADSVKGRFTISRDNANNTVYLQMNSLKPEDTAVYYCAADLPWEDGYYFYSGYTEYDYWGQGTQVTVSS | low polyreactivity
QVQLVESGGGLVQAGGSLRLSCSASGFIFYGYTMGWYRQAPGKERELVAAITFSGGRTYYADSVKGRFTISRDHAKNTVYLQMNSLKPEDSAVYYCAALHYGRYRMDYWGQGTQVTVSS | high polyreactivity

Sequence | polyreactivity (PSR sort gate)
QVQLVDSGGGLVQAGGSLRLTCAASARTFHYYAMGWYREAPGKERELVAAITSSGGSTYADSVKGRFTISRDNAKNTVYLQMNSLKPEDTAVYYCARDRYDNPYDQELDYWGQGTQVTVSS | low polyreactivity
QVQLVESGGGLVQAGGSLRLSFAASGRTFIGYAMGWSRQAPGKERELVAGISWSGGSTYYADSVKGRFTISRDNAKNTVYLQMNSLKPEDTAVYFCAARGRWSTEYRYWGQGTQVTVSS | low polyreactivity
QVHLVESGGGLVQAGGSLRLSCAASGRNFGTYAMGWYRQAPGKDRELVADISSSGTSTYYADSVKGRFTISRDNAKNTVYLQMNSLKPEDTAVSYCDVVAIDYAYDYYFRLGYDYWGQGTQVSVSS | low polyreactivity
QVQLVESGGGLVQAGGSLRLSCAASGTFVYYAMGWYRQAPGKERELVAVISLNGGITYYADSVKGRFTISRDNAKNTVYLQMNSLKPEDTAVYYCNAQFYNSGWSFKSYYWGHGTQVTVSS | low polyreactivity
QVQLVKSGGGLVQAGGSLRLSCAASGSTFYNAMGWYRQAPGKEREWVAAISIGGSTYYADSVKGRFTISRYNAKNTVYLQMNSLKPEDTAVYYCNADLYYWLRYYDRNDYWGQGTQVTVSS | low polyreactivity
QVQLVESGGGLVQAGGSLRLSCAASGRIFGLYAMGWYRQAPGKERELVAAYADSVKGRFTISRDYAKNTVYLQMNSLKPEDTAVYYCAKGPLYAGYSIDLRDFNYWGQGTQVTVSS | low polyreactivity
QVQLVESGGGLVQAGGSLRLSCAASGSTFVPYTMGWYRQAPGKERELVAVITSGGSTNYADSVKGRFTISLDNAKNTVYLQMNSLKPEDTAVYYCDARRRGRKERGEDYWGQGTQVTVSS | high polyreactivity
QVQLVESGSGLVQAGGILRLSCAASGFIFDAYAMGWYRQAPGKERELVAGISIGGRTNYADSVTGRFTISRDNALNTVYLQMTSLKPEDTAVYYCAARNYRYYYGSYYRGPITNYEYWGQGNQVTVSS | low polyreactivity
QVQLVDSGGGLVQAGGSLRLSCAASGYTFDWYNRGWYRQAPGKERELVAAISASGVRTYYADSVKGRFTISRDNAKNTVYFQMNSLKPEDTAVYYCNRVYSTSRITQYEFDYWGQGTQVTVSS | low polyreactivity
QVQLVESGGGLVQAGGSLRLSCTASGSTFVAYAMGWYRQAPGKERELVAAITSSGGRTYYADSVKGRFTISRDNAKNTVYLQMNSLKPEDTAVYYCNVYPSRRRAVGESERYYWGQGTQVTVSS | high polyreactivity
QVQLVETGGGLVQAGGSLRLSCAASGRTFSGYAMGWSRQAPGKERELVASITWSGGSTYYADSVKGRFTISRDNAKNTVYLQMNSLKPDDTAVYYCARDSPRGRVGFNYWGQATQVTVSS | low polyreactivity
QVQLVESGGGLGQAGGSLRLSCAASGYTFAGYAMGWYRPAPGKETELVAAISQSGGRTNYADSVKGRFTISRDNSKNTVYLQMNSLKPADTAVYYCAAEETSYTSEYWGQGTQVTVSS | high polyreactivity
QVQLVESGGGLVQAGGSLRLSCAASGSTFTWYAMGWYRQAPGKERELVAAISWSGDSTYYADSVKGRFTISRDNAKNTVYLQMNSLKPEDTAVYYCAAENVYGYDYWGQGTQVTVSS | high polyreactivity
QVQLVESGGGLVQAGGSLRLSCAASGRTFYKYAMGWYRQAPWKERELVAAISSDGTTYYADSVKGRFTISRDNAKNTVYLQMNSLKPEDTAVYYCAKDRKYADNDYWGQGTQVTVSS | low polyreactivity
QVQLVESGGGLVQAGGSLRLSCAASGITFIRYAMGWYRQAPGKERELVAAISKDGDSTYYADSVKGRFTISRDNAKNTVYLQMNSLKPEDSGVYYCAAQRYSKALYNYWGQGTQVTVSS | high polyreactivity
QVQLVESVGGLVQAGGSLRLSCAASGYTFYLYAMGWYRQAPGKERELVAAISYSSGGTYYADSVKGRFTISRDNAKNTVYLQMNSLKPEDTAVYYCAADAYDGEGTYPFEYWGQGTQVTVSS | low polyreactivity
QVQLVESGGGLVQAGGSLRLSCAVRRTLSFYAMGWYRQAPGKERELVATISRSGGSTYYADSVKGRFTISRDNAKNTVYLQMNSLKPEDTAVYYCAVRWKAHYWGPIYYYWGQGTQVTVSS | high polyreactivity
QVQLVESGGGLVQAGGSLRLSCAASGFTFYSYAMGWYRPAPGKERELVAAISSGGSTKYADSVKGRFTISRDNAKNTVYLQMNSVKPEDTEVYYCAARYYRDYRWYTYAYDYWGQGTQVTVSS | high polyreactivity
QVQLVESGGGLVQAGGSLRLSCAASGRIFPYYAMGWYRQAPGKERELVASTNYADSVKGRFTISRDNAKNTVYLQMNSLKPEDTAVYYCAADGYRYSVYLIRNPMDYWGQGTQVTVSS | low polyreactivity
QVQLEESGGGLVQAGGSLRLSCAASGFTFLYNAMGWYRQAPGKERELVASINSGGSTNYADSVKGRVTISRDNAKNTVYLQMNSLKPEDTAVYYCNAKRHVRKGDYWGQGTQVTVSS | low polyreactivity
QVQLVESGGGLVQAGGSLRLSCAASGRTFGINAMGWYRQAPGKERELVAVISFGDGGTYYADSVKGRFTISRDNAKNTVYLQMNSLKPEDTAVYYCAAAIWYIKLYFVRRTEHGYWGQGTQVTVSS | low polyreactivity

Source: the nanobody polyreactivity screen of Harvey et al. (2022)
